Laboratory results reported in the supplement of paper PMC6757056.
± gives the standard deviation of the averaged measurements.

B1: library; a variant is named by its letters at N, in order (parent)
chain: GCUGUCACCGAGAAACUGUGAAGUAUAUCUUAAACCUGGGCACUUAAAAGAUAUAUGGAGUUAGUAGUGCAACCUGCUCGGUCUGAUGAGUCCNNNNNNGGACGAAACAGC

Tests used:
[1] = variants of: B1; assay: normalized RNA/DNA level without ligand (relative to sTRSVctl = 100) (log10 (% of sTRSVctl)); HEK293T; ligand: cyclic di-GMP (c-di-GMP-II aptamer); higher = less ribozyme self-cleavage, higher mRNA level; conditions: reporter: mCherry (pCS4076), ligand present: no
Procedure, shortened: (§1)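 HEK293T cells received ligand, where used, 1 h before being transfected with 4 µg per 6-well well of library plasmids encoding reporter-linked ribozyme switches. After 72 h, RNA was extracted with EDTA and sequenced. RNA level was derived from RNA reads per DNA read, normalized to a spiked-in non-cleaving sequence or the top sequences, then scaled and log-transformed. Values were ×100 then log10, the top set was 25 sequences, and the minimum was 100 DNA reads.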

[2] = variants of: B1; assay: normalized RNA/DNA level with ligand (relative to sTRSVctl = 100) (log10 (% of sTRSVctl)); HEK293T; ligand: cyclic di-GMP (c-di-GMP-II aptamer); ligand concentration (+) RNA-Seq: 1 mM; higher = less ribozyme self-cleavage, higher mRNA level; conditions: reporter: mCherry (pCS4076), ligand present: yes
Procedure, shortened: as §1

| Variant | normalized RNA/DNA level without ligand (log10) [1] | normalized RNA/DNA level with ligand (log10) [2] |
| --- | --- | --- |
| GCUGUCACCGAGAAACUGUGAAGUAUAUCUUAAACCUGGGCACUUAAAAGAUAUAUGGAGUUAGUAGUGCAACCUGCUCGGUCUGAUGAGUCCCGGCGAGGACGAAACAGC [CGGCGA] | 1.49 ± 0.068 | 1.67 ± 0.11 |
| GCUGUCACCGAGAAACUGUGAAGUAUAUCUUAAACCUGGGCACUUAAAAGAUAUAUGGAGUUAGUAGUGCAACCUGCUCGGUCUGAUGAGUCCAGACUCGGACGAAACAGC [AGACUC] | 1.74 ± 0.054 | 1.83 ± 0.094 |
| GCUGUCACCGAGAAACUGUGAAGUAUAUCUUAAACCUGGGCACUUAAAAGAUAUAUGGAGUUAGUAGUGCAACCUGCUCGGUCUGAUGAGUCCCCUCUUGGACGAAACAGC [CCUCUU] | 1.63 ± 0.017 | 1.81 ± 0.15 |
| GCUGUCACCGAGAAACUGUGAAGUAUAUCUUAAACCUGGGCACUUAAAAGAUAUAUGGAGUUAGUAGUGCAACCUGCUCGGUCUGAUGAGUCCUGACAAGGACGAAACAGC [UGACAA] | 1.69 ± 0.018 | 1.8 ± 0.11 |
| GCUGUCACCGAGAAACUGUGAAGUAUAUCUUAAACCUGGGCACUUAAAAGAUAUAUGGAGUUAGUAGUGCAACCUGCUCGGUCUGAUGAGUCCGACAGUGGACGAAACAGC [GACAGU] | 1.662 ± 0.0086 | 1.79 ± 0.11 |
| GCUGUCACCGAGAAACUGUGAAGUAUAUCUUAAACCUGGGCACUUAAAAGAUAUAUGGAGUUAGUAGUGCAACCUGCUCGGUCUGAUGAGUCCGUUGGCGGACGAAACAGC [GUUGGC] | 1.61 ± 0.022 | 1.79 ± 0.09 |
| GCUGUCACCGAGAAACUGUGAAGUAUAUCUUAAACCUGGGCACUUAAAAGAUAUAUGGAGUUAGUAGUGCAACCUGCUCGGUCUGAUGAGUCCAGCCUGGGACGAAACAGC [AGCCUG] | 1.6624 ± 0.00017 | 1.81 ± 0.15 |
| GCUGUCACCGAGAAACUGUGAAGUAUAUCUUAAACCUGGGCACUUAAAAGAUAUAUGGAGUUAGUAGUGCAACCUGCUCGGUCUGAUGAGUCCCAGUUGGGACGAAACAGC [CAGUUG] | 1.76 ± 0.019 | 1.87 ± 0.11 |
| GCUGUCACCGAGAAACUGUGAAGUAUAUCUUAAACCUGGGCACUUAAAAGAUAUAUGGAGUUAGUAGUGCAACCUGCUCGGUCUGAUGAGUCCAGAGGUGGACGAAACAGC [AGAGGU] | 1.57 ± 0.022 | 1.73 ± 0.077 |
| GCUGUCACCGAGAAACUGUGAAGUAUAUCUUAAACCUGGGCACUUAAAAGAUAUAUGGAGUUAGUAGUGCAACCUGCUCGGUCUGAUGAGUCCGAUCGUGGACGAAACAGC [GAUCGU] | 1.65 ± 0.046 | 1.81 ± 0.087 |
| GCUGUCACCGAGAAACUGUGAAGUAUAUCUUAAACCUGGGCACUUAAAAGAUAUAUGGAGUUAGUAGUGCAACCUGCUCGGUCUGAUGAGUCCAGGGGGGGACGAAACAGC [AGGGGG] | 1.72 ± 0.026 | 1.81 ± 0.075 |
| GCUGUCACCGAGAAACUGUGAAGUAUAUCUUAAACCUGGGCACUUAAAAGAUAUAUGGAGUUAGUAGUGCAACCUGCUCGGUCUGAUGAGUCCAUCAUUGGACGAAACAGC [AUCAUU] | 1.695 ± 0.0081 | 1.79 ± 0.12 |
| GCUGUCACCGAGAAACUGUGAAGUAUAUCUUAAACCUGGGCACUUAAAAGAUAUAUGGAGUUAGUAGUGCAACCUGCUCGGUCUGAUGAGUCCGUCGACGGACGAAACAGC [GUCGAC] | 1.5985 ± 0.0011 | 1.76 ± 0.16 |
